This note sets out measurements from patent US20150246971A1 (RESEARCH DEVELOPMENT FOUNDATION, published 2015).

In experiment [1] the target is T1, soluble human JAM-C-FLAG protein (human, UniProt Q9BX67 32-237).
T1 construct: Amine-coupled to a Biacore CM5 chip; also called immobilized JAM-C; human soluble JAM-C FLAG protein
T1 sequence: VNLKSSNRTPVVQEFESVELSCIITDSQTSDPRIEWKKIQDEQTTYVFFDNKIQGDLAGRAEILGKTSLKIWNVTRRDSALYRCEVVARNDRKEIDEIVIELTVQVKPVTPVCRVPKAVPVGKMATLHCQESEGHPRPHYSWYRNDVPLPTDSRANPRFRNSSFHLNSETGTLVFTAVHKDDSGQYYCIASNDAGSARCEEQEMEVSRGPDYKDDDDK
Description: SPR (Biacore 2000), JAM-C FLAG on a CM5 chip. As for the experimental part:
(§1) To confirm the specificity of the JAM-C/JAM-B interaction at the molecular level, soluble human JAM-C-FLAG protein was covalently immobilized to a Biacore CM5 sensor chip Immobilization was assessed by testing the binding of anti-JAM-C monoclonal and polyclonal antibodies. […] Homotypic JAM-C/JAM-C interaction was never observed under these conditions, even when injecting higher concentrations of JAM-C Fc. […] To validate these findings for the model of human cells injected into mice, the inventors subsequently confirmed that human JAM-C binds to murine JAM-B to the same extent as to human JAM-B (FIG. 6B).
(§2) Interaction studies were performed on a Biacore 2000 (GE Healthcare). Recombinant proteins were immobilized at a concentration of 5 μg/mL on a CM5 sensor chip using the amine coupling kit (NHS-EDC) provided by the Biacore supplier. Background signal from a reference channel without soluble JAM-C was automatically subtracted. Proteins (30 μL) were injected (Kinject) in running buffer (400 μM Tris-HCl pH 7.4, containing 145 mM NaCl) at a flow rate of 20 μL/min.

The target of experiment [2] is T2, human JAM-C (full-length, on cells) (human, UniProt Q9BX67 32-310).
T2 construct: whole, on cells; also called HuJAM-C; junctional adhesion molecule C
T2 sequence (looked up): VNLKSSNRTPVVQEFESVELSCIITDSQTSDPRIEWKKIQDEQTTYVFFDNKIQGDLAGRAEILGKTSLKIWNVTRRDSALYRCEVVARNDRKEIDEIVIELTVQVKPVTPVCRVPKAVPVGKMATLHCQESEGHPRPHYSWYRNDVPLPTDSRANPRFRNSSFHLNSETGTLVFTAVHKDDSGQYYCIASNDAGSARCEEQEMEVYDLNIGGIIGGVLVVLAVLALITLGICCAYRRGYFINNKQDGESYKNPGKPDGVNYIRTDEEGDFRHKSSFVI
Put plainly: adhesion of CFSE-labelled JAM-C-transfected Raji cells to coated Fc protein. As for the experimental part:
(§3) Although homotypic JAM-C/JAM-C and heterotypic JAM-C/JAM-B interactions have been reported, the endothelial ligand for JAM-C on B cells had not been described. To investigate this interaction, adhesion assays were performed. Culture plates were coated with recombinant human and murine JAM-B Fc, human JAM-C Fc, human VCAM-1 Fc as a positive control, and JAM-A Fc as a negative control. The JAM-Cneg B cell line Raji was transfected with the full-length human JAM-C cDNA and mock-transfected cells were used as a control (FIG. 5A). Whereas mock-transfected Raji cells adhered only to VCAM-1, JAM-C transfected Raji cells adhered to JAM-B and VCAM-1, but adhered neither to JAM-C nor to JAM-A (FIG. 5B-C). […]
(§4) For cell adhesion assays, NUNC 269787 adhesion plates were successively coated with anti-huFc antibody (Jackson Immuno Research) at 2.5 μg/mL, Fc-labeled proteins at 2.5 μg/mL, and blocked with 1% BSA (purified fraction V, Sigma). […] One hundred microliters of lysed cells were transferred into a 96-well plate (micro-clear plates black, Greiner), and fluorescence (πex 485 nm; πem 538 nm) was measured with a Flex Station Microplate reader (Molecular Devices). Data were expressed either in arbitrary units or as the ratio of the fluorescence measured on JAM-B Fc coated wells to the fluorescence measured on wells coated with Fc control protein.

Experiment [3] addresses T1, soluble human JAM-C-FLAG protein. Description: SPR (Biacore 2000), JAM-C FLAG on a CM5 chip, response at the end of injection. The procedure:
as §1, §2
On the technique in general: Surface plasmon resonance follows binding to a sensor surface in real time, without labels.

Experiment [4] has as its target T2, human JAM-C (full-length, on cells). Put plainly: adhesion of CFSE-labelled JAM-C-transfected Raji cells to coated Fc protein (human and murine JAM-B Fc coated). As for the experimental part:
as §3, §4

B1: recombinant human JAM-B Fc (Fc fusion)
chain: FSAPKDQQVVTAVEYQEAILACKTPKKTVSSRLEWKKLGRSVSFVYYQQTLQGDFKNRAEMIDFNIRIKNVTRSDAGKYRCEVSAPSEQGQNLEEDTVTLEVLVAPAVPSCEVPSSALSGTVVELRCQDKEGNPAPEYTWFKDGIRLLENPRLGSQSTNSSYTMNTKTGTLQFNTVSKLDTGEYSCEARNSVGYRRCPGKRMQVDDLNIS
notes: Bought (R&D); also called soluble JAM-B Fc; soluble human JAM-B Fc; not shown: Fc tag (detected with anti-human IgG1 Fc)
Regarding B1, the binding result in experiment [1] and in experiment [2] was “binds” throughout.

B2: human JAM-B FLAG (ligand)
chain: FSAPKDQQVVTAVEYQEAILACKTPKKTVSSRLEWKKLGRSVSFVYYQQTLQGDFKNRAEMIDFNIRIKNVTRSDAGKYRCEVSAPSEQGQNLEEDTVTLEVLVAPAVPSCEVPSSALSGTVVELRCQDKEGNPAPEYTWFKDGIRLLENPRLGSQSTNSSYTMNTKTGTLQFNTVSKLDTGEYSCEARNSVGYRRCPGKRMQVDDLNIS
notes: also called human JAM-B FLAG protein; not shown: FLAG tag
With B2, the binding result in experiment [1] is “binds”.

B3: murine JAM-B FLAG (ligand, UniProt Q9JI59 29-236, looked up)
chain: FSASKDHRQEVTVIEFQEAILACKTPKKTTSSRLEWKKVGQGVSLVYYQQALQGDFKDRAEMIDFNIRIKNVTRSDAGEYRCEVSAPTEQGQNLQEDKVMLEVLVAPAVPACEVPTSVMTGSVVELRCQDKEGNPAPEYIWFKDGTSLLGNPKGGTHNNSSYTMNTKSGILQFNMISKMDSGEYYCEARNSVGHRRCPGKRMQVDVLN
notes: also called murine JAM-B FLAG protein; not shown: FLAG tag
B3: the binding result in experiment [3] was “binds”.

B4: recombinant murine JAM-B Fc (Fc fusion, UniProt Q9JI59 29-236, looked up)
chain: FSASKDHRQEVTVIEFQEAILACKTPKKTTSSRLEWKKVGQGVSLVYYQQALQGDFKDRAEMIDFNIRIKNVTRSDAGEYRCEVSAPTEQGQNLQEDKVMLEVLVAPAVPACEVPTSVMTGSVVELRCQDKEGNPAPEYIWFKDGTSLLGNPKGGTHNNSSYTMNTKSGILQFNMISKMDSGEYYCEARNSVGHRRCPGKRMQVDVLN
notes: Coated on adhesion plates; also called mouse JAM-B; not shown: Fc tag (captured by anti-huFc antibody)
On to B4, for which, in experiment [4], the binding result is listed as “binds”.
